Laboratory results reported in patent US20190367616A1 (SYMPHOGEN A S, published 2019).
Numbering of substitutions follows the chain as printed. Numbers in names are those of the source.

T1: mouse PD-1 ECD (Sino Biological cat. no. 50124-MO8H) (mouse, UniProt Q02242 25-169)
T1 construct: extracellular domain; Bought monomeric ECD
T1 sequence (looked up): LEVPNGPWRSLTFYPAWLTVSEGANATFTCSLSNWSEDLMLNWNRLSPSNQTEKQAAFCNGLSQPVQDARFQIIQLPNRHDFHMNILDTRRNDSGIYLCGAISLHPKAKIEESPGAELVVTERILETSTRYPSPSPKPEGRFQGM

B1: antibody 18040 (antibody, V domains shown)
VH: QVQLVESGGGLVKPGGSLRLSCAASGFTFSDYYMNWIRQAPGKGLEWVSYISSTGSTIYYADSVKGRFTISRDNAKNSLYLQMDSLRAEDTAVYYCARATNWGSDYWGQGTLVTVSS
VL: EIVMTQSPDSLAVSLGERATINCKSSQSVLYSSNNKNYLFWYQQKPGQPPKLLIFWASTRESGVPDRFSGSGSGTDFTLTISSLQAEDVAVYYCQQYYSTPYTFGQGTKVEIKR
notes: Tested as human IgG1 L234A/L235A (LALA), kappa; The VH/VL entries carry X at variable positions
B2: antibody 18049 (antibody, V domains shown)
VH: QVQLVESGGGVVQPGRSLRLSCAASGFTFSNYGMHWVRQAPGKGLEWVAVIWYDGSDKYYADSVKGRFTISRDNSKNTLYLQMNSLRAEDTAVYYCAGGGNYYGDFWGQGTLVTVSS
VL: EIVMTQSPSSLSASVGDRVTITCRASQGIRNDLGWYQQKPGKAPKRLIYVASNLQSGVPSRFSGSGSGTEFTLTISSLQPEDFATYYCLQYNSYPWTFGQGTKVEIKR
notes: Tested as human IgG1 L234A/L235A (LALA), kappa
B3: antibody 18098 (antibody, V domains shown)
VH: QVQLQESGGGLVRPGGSLRLSCAASGFTFSSFAMNWVRQAPGKGLVWVSTITGGGTTSYYADSVKGRFTISRDNSKSTLFLQMNSLRAEDTAVYYCAKWGSWSAGAFDIWGQGTTVTVSS
VL: DIQLTQSPSSVSASVGDRVTITCRASQGISSWLAWYQQKPGKAPKLLIYAASSLQSGVPSRFSGSGSGTDFTLTISSLQPEDFATYYCQQANSFPWTFGQGTKVEIKR
notes: as for B2
B4: antibody 18113 (antibody, V domains shown)
VH: B1 VH with N35S, T54S, V64A, D84N, A99D, G103A, S104F
VL: DIQLTQSPDSLAVSLGERATINCKSSQSVFYSANNKNYLAWYQQKPGQPPKLLIYWTSTRESGVPDRFRGSGSGTDFTLTISSLQAEDVAVYYCQQFYSTPRTFGQGTKVEIKR
notes: as for B2
B5: antibody 18325 (antibody, V domains shown)
VH: QVQLQQSGGGLVQPGGSLRLSCAASGFTFSSHVMNWVRQAPGKGLEWVATISGSGVDTYYADSVKGRFTISRGNSKNMLYLQMNSLRAEDTAVYYCAKWGSWSAGAFDIWGQGTMVTVSS
VL: B3 VL with D1E, Q3V
notes: as for B2
B6: antibody 18400 (antibody, V domains shown)
VH: QLQLQESGPGLVKPSGTLSLTCAVSGGSISSSNWWSWVRQPPKKGLEWVGEIFHDGTTSYNPSLKSRVTMSVDKSKNQFSLKLSSVTAADTAVYYCARGNWGSGALDIWGPGTMVTVSS
VL: B2 VL with S10P, R46L, V50A, N53S, E70D, Y91D, N92Y, S93N, W96R
notes: as for B2
B7: antibody 18413 (antibody, V domains shown)
VH: EVQLVESGGGLVQPGGSLRLSCAASGFTFSSFVMSWVRQAPGKGLEWLSTISGGGGSTYYADSVKGRFTISRDNSKNTLYLQMNSLRAEDTAVYYCAKDWDLYYFDYWGQGTLVTVSS
VL: B3 VL with S12P, S31N, W96L, Q100G
notes: as for B2
B8: antibody 18483 (antibody, V domains shown)
VH: QVQLQQSGGGLVQPGGSLRLSCAASGFTFSDYWMNWVRQAPGKGLEWVANIKEDGNEKYYVDSVKGRFTISRDNAKNSLYLQMNSLRAEDTAVYYCARDTNWGSDYWGQGTLVTVSS
VL: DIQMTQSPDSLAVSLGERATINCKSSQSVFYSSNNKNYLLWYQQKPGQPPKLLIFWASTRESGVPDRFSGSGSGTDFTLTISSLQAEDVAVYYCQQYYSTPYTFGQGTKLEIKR
notes: as for B2

Target: T2, human PD-1 ECD (Acro Biosystems cat. no. PD1-H52219) (human, UniProt Q15116 25-170)
T2 construct: extracellular domain; Bought monomeric ECD; also called monomeric PD-1 antigen
Experiment: SPR, antibody on sensor, monomeric PD-1 ECD in solution
Experimental: (§1) The kinetic binding analysis was performed by Surface Plasmon Resonance (SPR) using a Continuous Flow Microspotter (CFM, Wasatch Microfluidics, US) combined with an Ibis MX96 SPR instrument (IBIS Technologies, The Netherlands). Surface Plasmon Resonance imaging analysis was performed on G-a-hu-IgG Fc SensEye® SPR sensors (Ssens BV, The Netherlands). Anti-PD-1 antibodies expressed in IgG₁ LALA format (i.e., having the mutations L234A/L235A) were diluted to 2.5 nM in PBS-T (1×PBS with 0.05% Tween 20, pH 7.4). Antibodies were spotted onto a G-a-hu-IgG Fc SensEye® for 15 minutes using a Continuous Flow Microspotter (CFM, Wasatch Microfluidics, Salt Lake City, US). After spotting, the SensEye® was positioned in the IBIS MX96 biosensor, and antibodies were chemically fixed to the sensor surface using Fix It Kit (Ssens BV, The Netherlands). Kinetic analysis was performed by applying a kinetic titration series (Karlsson et. al., Anal. Biochem. 349(1):136-47 (2006)), where monomeric PD-1 antigen was injected in increasing concentrations from 2 nM to 100 nM without application of surface regeneration steps after each antigen injection. Binding was tested to human PD-1 ECD (Acro Biosystems cat. no. PD1-H52219), mouse PD-1 ECD (Sino Biological. cat. no. 50124-MO8H) and cynomolgus PD-1 ECD (Acro Biosystems cat. no. PD1-05223) in three separate experiments. Antigen association was performed for 15 minutes and antigen dissociation was performed for 60 minutes. The kinetic analysis was performed at 25° C. After completion, the recorded binding responses were fitted to a simple Langmuir 1:1 binding model with Scrubber 2 software for calculation of the on-rate (kₒₙ or kₐ), off-rate (koff or kd) and affinity (KD) constants.

T2 sequence (Q15116 25-170, one chain of several): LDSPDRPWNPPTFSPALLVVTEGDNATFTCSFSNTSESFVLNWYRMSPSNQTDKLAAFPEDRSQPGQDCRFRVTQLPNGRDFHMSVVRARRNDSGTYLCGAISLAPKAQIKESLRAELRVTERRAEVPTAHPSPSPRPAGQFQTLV

**Q.** How did the Kd turn out when B1 was run?
**A.** 0.41 nM

**Q.** What about the koff of the same binder?
**A.** 0.00011 s⁻¹

**Q.** What about the kon of the same binder?
**A.** 260000 M⁻¹ s⁻¹

**Q.** With B2 as the binder, how does the Kd read?
**A.** 1.8 nM

**Q.** What about the koff of the same binder?
**A.** 6e-05 s⁻¹

**Q.** And the kon?
**A.** 34000 M⁻¹ s⁻¹

**Q.** For B3, which Kd is on record?
**A.** 2.3 nM

**Q.** What about the koff of the same binder?
**A.** 0.00023 s⁻¹

**Q.** What about the kon of the same binder?
**A.** 100000 M⁻¹ s⁻¹

**Q.** What does the source list for B4?
**A.** Kd: 0.6 nM; koff: 0.0001 s⁻¹; kon: 170000 M⁻¹ s⁻¹

**Q.** How did the Kd turn out when B5 was run?
**A.** 0.82 nM

**Q.** And the koff?
**A.** 0.00011 s⁻¹

**Q.** What about the kon of the same binder?
**A.** 130000 M⁻¹ s⁻¹

**Q.** How did the Kd turn out when B6 was run?
**A.** 1.6 nM

**Q.** What about the koff of the same binder?
**A.** 0.00035 s⁻¹

**Q.** And the kon?
**A.** 230000 M⁻¹ s⁻¹

**Q.** How did the Kd turn out when B7 was run?
**A.** 1.5 nM

**Q.** And the koff?
**A.** 0.00011 s⁻¹

**Q.** What about the kon of the same binder?
**A.** 77000 M⁻¹ s⁻¹

**Q.** With B8 as the binder, how does the Kd read?
**A.** 0.29 nM

**Q.** What about the koff of the same binder?
**A.** 0.00017 s⁻¹

**Q.** What about the kon of the same binder?
**A.** 580000 M⁻¹ s⁻¹

Target: T3, cynomolgus PD-1 ECD (Acro Biosystems cat. no. PD1-05223) (cynomolgus, UniProt B0LAJ3 25-170)
T3 construct: Bought monomeric ECD; not shown: any purification tag of the vendor's product (Acro Biosystems PD1-05223, probably a His tag)
Experiment: as above
Experimental: as §1

T3 sequence (B0LAJ3 entry or part of it limits assumed): as the sequence (Q15116 25-170, one chain of several) above, with D2E, P10A, V19L, T35A, Q75R, T144A counted along it

**Q.** How did the Kd turn out when B1 was run?
**A.** 2.9 nM

**Q.** And the koff?
**A.** 0.00097 s⁻¹

**Q.** What about the kon of the same binder?
**A.** 340000 M⁻¹ s⁻¹

**Q.** Which results are given for B2?
**A.** Kd: 2.1 nM; koff: 8e-05 s⁻¹; kon: 38000 M⁻¹ s⁻¹

**Q.** B3 was tested. Which Kd did it give?
**A.** 34 nM

**Q.** And the koff?
**A.** 0.0013 s⁻¹

**Q.** And the kon?
**A.** 39000 M⁻¹ s⁻¹

**Q.** B4 was tested. Which Kd did it give?
**A.** 5.3 nM

**Q.** And the koff?
**A.** 0.00076 s⁻¹

**Q.** What about the kon of the same binder?
**A.** 140000 M⁻¹ s⁻¹

**Q.** Which results are given for B5?
**A.** Kd: 4.3 nM; koff: 0.00062 s⁻¹; kon: 140000 M⁻¹ s⁻¹

**Q.** With B6 as the binder, how does the Kd read?
**A.** 3.7 nM

**Q.** What about the koff of the same binder?
**A.** 0.00087 s⁻¹

**Q.** What about the kon of the same binder?
**A.** 230000 M⁻¹ s⁻¹

**Q.** How did the Kd turn out when B7 was run?
**A.** 6.4 nM

**Q.** And the koff?
**A.** 0.00062 s⁻¹

**Q.** And the kon?
**A.** 97000 M⁻¹ s⁻¹

**Q.** B8 was tested. Which Kd did it give?
**A.** 3.1 nM

**Q.** What about the koff of the same binder?
**A.** 0.0008 s⁻¹

**Q.** And the kon?
**A.** 260000 M⁻¹ s⁻¹

Target: T1, mouse PD-1 ECD (Sino Biological cat. …)
Experiment: as above
Experimental: as §1

**Q.** Does B1 bind?
**A.** no binding (tested: 100 nM)

**Q.** Does B2 bind?
**A.** no binding (tested: 100 nM)

**Q.** Does B3 bind?
**A.** no binding (tested: 100 nM)

**Q.** Does B4 bind?
**A.** no binding (tested: 100 nM)

**Q.** Does B5 bind?
**A.** no binding (tested: 100 nM)

**Q.** For B6, which Kd is on record?
**A.** 11 nM

**Q.** What about the koff of the same binder?
**A.** 5e-05 s⁻¹

**Q.** And the kon?
**A.** 4700 M⁻¹ s⁻¹

**Q.** Does B7 bind?
**A.** no binding (tested: 100 nM)

**Q.** Does B8 bind?
**A.** no binding (tested: 100 nM)
